Measured values taken from PMC12381156.

Target: G protein-coupled bile acid receptor 1 (GPBAR1), full-length human, with N-terminal FLAG and BRIL (human) (UniProt Q8TDU6)
Experiment: mass photometry; samples in 20 mM HEPES, 150 mM NaCl, 0.02%/0.002% LMNG/CHS, drop-diluted in PBS to 10 nM (apo-GPBAR1) and 30 nM (GPBAR1/Gs complex with P395 and Nb35); room temperature (18 °C)

Chain of UniProt Q8TDU6 (Q8TDU6 whole entry): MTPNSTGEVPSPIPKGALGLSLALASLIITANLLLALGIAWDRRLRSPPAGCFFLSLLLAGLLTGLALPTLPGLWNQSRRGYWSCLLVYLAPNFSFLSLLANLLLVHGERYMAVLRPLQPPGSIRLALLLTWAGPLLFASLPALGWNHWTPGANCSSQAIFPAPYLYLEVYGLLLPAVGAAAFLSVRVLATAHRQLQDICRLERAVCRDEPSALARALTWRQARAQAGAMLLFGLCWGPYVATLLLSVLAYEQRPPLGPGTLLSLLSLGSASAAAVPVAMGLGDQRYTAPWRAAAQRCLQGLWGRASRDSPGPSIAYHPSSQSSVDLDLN

stoichiometry N: 1
Substance: Gs heterotrimer (Gαs, Gβ1, Gγ2) (from UniProt P63096 1-18; P63092 16-394; P62873 2-340; P59768 1-71) (complex)
